The target of this assay is T1, CPP32, bacterially expressed recombinant active enzyme (human), P42574.
T1 chain: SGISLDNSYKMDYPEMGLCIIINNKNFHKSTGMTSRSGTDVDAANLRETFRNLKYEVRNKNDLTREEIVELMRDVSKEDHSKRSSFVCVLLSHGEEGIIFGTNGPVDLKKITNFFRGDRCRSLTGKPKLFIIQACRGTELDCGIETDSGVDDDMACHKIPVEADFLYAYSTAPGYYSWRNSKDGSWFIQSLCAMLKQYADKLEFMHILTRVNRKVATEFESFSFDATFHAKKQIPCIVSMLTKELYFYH
As to the kind of experiment: inhibition of hydrolysis of 10 µM DEVD-AMC, continuous fluorometric assay, bacterial lysate, 30 min preincubation. The conditions noted are these: remark: other sources report otherwise.

Our source for the Ki values is patent US20030119169A1.

Broadly, the Ki is a measure of affinity in units of concentration, obtained from inhibition or displacement.

No end group written: not given here.

As for YVAD-aldehyde [YVAD aldehyde], the Ki came out at 8.5 µM.
